From patent US20230220021A1 (UNIVERSITY OF COPENHAGEN, published 2023)
[ ]: non-standard residue; d: D form.

B1: cyclic nNOS β-hairpin peptide D114G (peptide)
peptide: cyclo(THLETTFTGGGTPKTIRVTQ[dP]GQ)
SMILES: CC[C@H](C)[C@@H]1NC(=O)[C@H]([C@@H](C)O)NC(=O)[C@H](CCCCN)NC(=O)[C@@H]2CCCN2C(=O)[C@H]([C@@H](C)O)NC(=O)CNC(=O)CNC(=O)CNC(=O)[C@H]([C@@H](C)O)NC(=O)[C@H](Cc2ccccc2)NC(=O)[C@H]([C@@H](C)O)NC(=O)[C@H]([C@@H](C)O)NC(=O)[C@H](CCC(=O)O)NC(=O)[C@H](CC(C)C)NC(=O)[C@H](Cc2c[nH]cn2)NC(=O)[C@H]([C@@H](C)O)NC(=O)[C@H](CCC(N)=O)NC(=O)CNC(=O)[C@H]2CCCN2C(=O)[C@H](CCC(N)=O)NC(=O)[C@H]([C@@H](C)O)NC(=O)[C@H](C(C)C)NC(=O)[C@H](CCCNC(=N)N)NC1=O
B2: cyclic nNOS β-hairpin peptide G115R (peptide)
peptide: cyclo(THLETTFTGDRTPKTIRVTQ[dP]GQ)
SMILES: CC[C@H](C)[C@@H]1NC(=O)[C@H]([C@@H](C)O)NC(=O)[C@H](CCCCN)NC(=O)[C@@H]2CCCN2C(=O)[C@H]([C@@H](C)O)NC(=O)[C@H](CCCNC(=N)N)NC(=O)[C@H](CC(=O)O)NC(=O)CNC(=O)[C@H]([C@@H](C)O)NC(=O)[C@H](Cc2ccccc2)NC(=O)[C@H]([C@@H](C)O)NC(=O)[C@H]([C@@H](C)O)NC(=O)[C@H](CCC(=O)O)NC(=O)[C@H](CC(C)C)NC(=O)[C@H](Cc2c[nH]cn2)NC(=O)[C@H]([C@@H](C)O)NC(=O)[C@H](CCC(N)=O)NC(=O)CNC(=O)[C@H]2CCCN2C(=O)[C@H](CCC(N)=O)NC(=O)[C@H]([C@@H](C)O)NC(=O)[C@H](C(C)C)NC(=O)[C@H](CCCNC(=N)N)NC1=O
B3: cyclic nNOS β-hairpin peptide F111V (peptide)
peptide: cyclo(THLETTVTGDGTPKTIRVTQ[dP]GQ)
SMILES: CC[C@H](C)[C@@H]1NC(=O)[C@H]([C@@H](C)O)NC(=O)[C@H](CCCCN)NC(=O)[C@@H]2CCCN2C(=O)[C@H]([C@@H](C)O)NC(=O)CNC(=O)[C@H](CC(=O)O)NC(=O)CNC(=O)[C@H]([C@@H](C)O)NC(=O)[C@H](C(C)C)NC(=O)[C@H]([C@@H](C)O)NC(=O)[C@H]([C@@H](C)O)NC(=O)[C@H](CCC(=O)O)NC(=O)[C@H](CC(C)C)NC(=O)[C@H](Cc2c[nH]cn2)NC(=O)[C@H]([C@@H](C)O)NC(=O)[C@H](CCC(N)=O)NC(=O)CNC(=O)[C@H]2CCCN2C(=O)[C@H](CCC(N)=O)NC(=O)[C@H]([C@@H](C)O)NC(=O)[C@H](C(C)C)NC(=O)[C@H](CCCNC(=N)N)NC1=O
B4: cyclic nNOS β-hairpin peptide D114P (peptide)
peptide: cyclo(THLETTFTGPGTPKTIRVTQ[dP]GQ)
SMILES: CC[C@H](C)[C@@H]1NC(=O)[C@H]([C@@H](C)O)NC(=O)[C@H](CCCCN)NC(=O)[C@@H]2CCCN2C(=O)[C@H]([C@@H](C)O)NC(=O)CNC(=O)[C@@H]2CCCN2C(=O)CNC(=O)[C@H]([C@@H](C)O)NC(=O)[C@H](Cc2ccccc2)NC(=O)[C@H]([C@@H](C)O)NC(=O)[C@H]([C@@H](C)O)NC(=O)[C@H](CCC(=O)O)NC(=O)[C@H](CC(C)C)NC(=O)[C@H](Cc2c[nH]cn2)NC(=O)[C@H]([C@@H](C)O)NC(=O)[C@H](CCC(N)=O)NC(=O)CNC(=O)[C@H]2CCCN2C(=O)[C@H](CCC(N)=O)NC(=O)[C@H]([C@@H](C)O)NC(=O)[C@H](C(C)C)NC(=O)[C@H](CCCNC(=N)N)NC1=O
B5: cyclic nNOS β-hairpin peptide H106E (peptide)
peptide: cyclo(TELETTFTGDGTPKTIRVTQ[dP]GQ)
SMILES: CC[C@H](C)[C@@H]1NC(=O)[C@H]([C@@H](C)O)NC(=O)[C@H](CCCCN)NC(=O)[C@@H]2CCCN2C(=O)[C@H]([C@@H](C)O)NC(=O)CNC(=O)[C@H](CC(=O)O)NC(=O)CNC(=O)[C@H]([C@@H](C)O)NC(=O)[C@H](Cc2ccccc2)NC(=O)[C@H]([C@@H](C)O)NC(=O)[C@H]([C@@H](C)O)NC(=O)[C@H](CCC(=O)O)NC(=O)[C@H](CC(C)C)NC(=O)[C@H](CCC(=O)O)NC(=O)[C@H]([C@@H](C)O)NC(=O)[C@H](CCC(N)=O)NC(=O)CNC(=O)[C@H]2CCCN2C(=O)[C@H](CCC(N)=O)NC(=O)[C@H]([C@@H](C)O)NC(=O)[C@H](C(C)C)NC(=O)[C@H](CCCNC(=N)N)NC1=O
B6: cyclic nNOS β-hairpin peptide I120R (peptide)
peptide: cyclo(THLETTFTGDGTPKTRRVTQ[dP]GQ)
SMILES: CC(C)C[C@@H]1NC(=O)[C@H](Cc2c[nH]cn2)NC(=O)[C@H]([C@@H](C)O)NC(=O)[C@H](CCC(N)=O)NC(=O)CNC(=O)[C@H]2CCCN2C(=O)[C@H](CCC(N)=O)NC(=O)[C@H]([C@@H](C)O)NC(=O)[C@H](C(C)C)NC(=O)[C@H](CCCNC(=N)N)NC(=O)[C@H](CCCNC(=N)N)NC(=O)[C@H]([C@@H](C)O)NC(=O)[C@H](CCCCN)NC(=O)[C@@H]2CCCN2C(=O)[C@H]([C@@H](C)O)NC(=O)CNC(=O)[C@H](CC(=O)O)NC(=O)CNC(=O)[C@H]([C@@H](C)O)NC(=O)[C@H](Cc2ccccc2)NC(=O)[C@H]([C@@H](C)O)NC(=O)[C@H]([C@@H](C)O)NC(=O)[C@H](CCC(=O)O)NC1=O
B7: cyclic nNOS β-hairpin peptide D114R (peptide)
peptide: cyclo(THLETTFTGRGTPKTIRVTQ[dP]GQ)
SMILES: CC[C@H](C)[C@@H]1NC(=O)[C@H]([C@@H](C)O)NC(=O)[C@H](CCCCN)NC(=O)[C@@H]2CCCN2C(=O)[C@H]([C@@H](C)O)NC(=O)CNC(=O)[C@H](CCCNC(=N)N)NC(=O)CNC(=O)[C@H]([C@@H](C)O)NC(=O)[C@H](Cc2ccccc2)NC(=O)[C@H]([C@@H](C)O)NC(=O)[C@H]([C@@H](C)O)NC(=O)[C@H](CCC(=O)O)NC(=O)[C@H](CC(C)C)NC(=O)[C@H](Cc2c[nH]cn2)NC(=O)[C@H]([C@@H](C)O)NC(=O)[C@H](CCC(N)=O)NC(=O)CNC(=O)[C@H]2CCCN2C(=O)[C@H](CCC(N)=O)NC(=O)[C@H]([C@@H](C)O)NC(=O)[C@H](C(C)C)NC(=O)[C@H](CCCNC(=N)N)NC1=O
B8: cyclic nNOS β-hairpin peptide H106Y (peptide)
peptide: cyclo(TYLETTFTGDGTPKTIRVTQ[dP]GQ)
SMILES: CC[C@H](C)[C@@H]1NC(=O)[C@H]([C@@H](C)O)NC(=O)[C@H](CCCCN)NC(=O)[C@@H]2CCCN2C(=O)[C@H]([C@@H](C)O)NC(=O)CNC(=O)[C@H](CC(=O)O)NC(=O)CNC(=O)[C@H]([C@@H](C)O)NC(=O)[C@H](Cc2ccccc2)NC(=O)[C@H]([C@@H](C)O)NC(=O)[C@H]([C@@H](C)O)NC(=O)[C@H](CCC(=O)O)NC(=O)[C@H](CC(C)C)NC(=O)[C@H](Cc2ccc(O)cc2)NC(=O)[C@H]([C@@H](C)O)NC(=O)[C@H](CCC(N)=O)NC(=O)CNC(=O)[C@H]2CCCN2C(=O)[C@H](CCC(N)=O)NC(=O)[C@H]([C@@H](C)O)NC(=O)[C@H](C(C)C)NC(=O)[C@H](CCCNC(=N)N)NC1=O
B9: cyclic nNOS β-hairpin peptide H106F (peptide)
peptide: cyclo(TFLETTFTGDGTPKTIRVTQ[dP]GQ)
SMILES: CC[C@H](C)[C@@H]1NC(=O)[C@H]([C@@H](C)O)NC(=O)[C@H](CCCCN)NC(=O)[C@@H]2CCCN2C(=O)[C@H]([C@@H](C)O)NC(=O)CNC(=O)[C@H](CC(=O)O)NC(=O)CNC(=O)[C@H]([C@@H](C)O)NC(=O)[C@H](Cc2ccccc2)NC(=O)[C@H]([C@@H](C)O)NC(=O)[C@H]([C@@H](C)O)NC(=O)[C@H](CCC(=O)O)NC(=O)[C@H](CC(C)C)NC(=O)[C@H](Cc2ccccc2)NC(=O)[C@H]([C@@H](C)O)NC(=O)[C@H](CCC(N)=O)NC(=O)CNC(=O)[C@H]2CCCN2C(=O)[C@H](CCC(N)=O)NC(=O)[C@H]([C@@H](C)O)NC(=O)[C@H](C(C)C)NC(=O)[C@H](CCCNC(=N)N)NC1=O
B10: cyclic nNOS β-hairpin peptide I120Y (peptide)
peptide: cyclo(THLETTFTGDGTPKTYRVTQ[dP]GQ)
SMILES: CC(C)C[C@@H]1NC(=O)[C@H](Cc2c[nH]cn2)NC(=O)[C@H]([C@@H](C)O)NC(=O)[C@H](CCC(N)=O)NC(=O)CNC(=O)[C@H]2CCCN2C(=O)[C@H](CCC(N)=O)NC(=O)[C@H]([C@@H](C)O)NC(=O)[C@H](C(C)C)NC(=O)[C@H](CCCNC(=N)N)NC(=O)[C@H](Cc2ccc(O)cc2)NC(=O)[C@H]([C@@H](C)O)NC(=O)[C@H](CCCCN)NC(=O)[C@@H]2CCCN2C(=O)[C@H]([C@@H](C)O)NC(=O)CNC(=O)[C@H](CC(=O)O)NC(=O)CNC(=O)[C@H]([C@@H](C)O)NC(=O)[C@H](Cc2ccccc2)NC(=O)[C@H]([C@@H](C)O)NC(=O)[C@H]([C@@H](C)O)NC(=O)[C@H](CCC(=O)O)NC1=O
B11: cyclic nNOS β-hairpin peptide D114K (peptide)
peptide: cyclo(THLETTFTGKGTPKTIRVTQ[dP]GQ)
SMILES: CC[C@H](C)[C@@H]1NC(=O)[C@H]([C@@H](C)O)NC(=O)[C@H](CCCCN)NC(=O)[C@@H]2CCCN2C(=O)[C@H]([C@@H](C)O)NC(=O)CNC(=O)[C@H](CCCCN)NC(=O)CNC(=O)[C@H]([C@@H](C)O)NC(=O)[C@H](Cc2ccccc2)NC(=O)[C@H]([C@@H](C)O)NC(=O)[C@H]([C@@H](C)O)NC(=O)[C@H](CCC(=O)O)NC(=O)[C@H](CC(C)C)NC(=O)[C@H](Cc2c[nH]cn2)NC(=O)[C@H]([C@@H](C)O)NC(=O)[C@H](CCC(N)=O)NC(=O)CNC(=O)[C@H]2CCCN2C(=O)[C@H](CCC(N)=O)NC(=O)[C@H]([C@@H](C)O)NC(=O)[C@H](C(C)C)NC(=O)[C@H](CCCNC(=N)N)NC1=O

molecular target: T1, (7× His)-PSD-95-PDZ2 wild type (UniProt P78352 160-246); test: FP competition
T1 construct: domain: PDZ2; recombinant from E. coli; also called PSD-95-PDZ2 WT; not shown: 7x His tag
T1 sequence (P78352 160-246): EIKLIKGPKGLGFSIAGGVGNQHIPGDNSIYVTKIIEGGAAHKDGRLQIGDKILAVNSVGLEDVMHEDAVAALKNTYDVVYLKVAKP

Going from B1 to B2, the Ki falls from 2590 nM to 750 nM (3.5-fold).

First: B3
Second: B4
The Ki of the first is 32-fold higher: 77400 nM for the first, 2400 nM for the second. The second binds more tightly here.

Going from B5 to B6, the Ki falls from 6190 nM to 1760 nM (3.5-fold).

B7 and B8 are within 1.5-fold of each other in Ki: 990 nM for the first, 1180 nM for the second.

B9 and B10 are within 1.5-fold of each other in Ki: 1190 nM for the first, 1600 nM for the second.

B11 gave a Ki of 2870 nM.

First: B1
Second: B2
The “Relative Ki (Ki mut/Ki WT)” value of the first is higher: 1.73 for the first, 0.5 for the second.

First: B3
Second: B4
The “Relative Ki (Ki mut/Ki WT)” value of the first is higher: 51.6 for the first, 1.6 for the second.

Going from B5 to B6, the “Relative Ki (Ki mut/Ki WT)” value falls from 4.13 to 1.17.

Going from B7 to B8, the “Relative Ki (Ki mut/Ki WT)” value rises from 0.66 to 0.79.

Compared with B9, B10 is higher in “Relative Ki (Ki mut/Ki WT)” value: 0.79 for the first, 1.07 for the second.

B11 was tested, and the “Relative Ki (Ki mut/Ki WT)” value was 1.91.
